Data from article doi:10.1101/840439 (bioRxiv, 2019).

Biological target: the molecule itself
Test: crystal structure

B1: BchL (L-protein of dark-operative protochlorophyllide oxidoreductase, DPOR), wild type (enzyme, Rhodobacter sphaeroides, UniProt Q9RFD6 1-297, looked up)
chain: MSPKDLTIPTGADGEGSVQVHLDEADKITGAKVFAVYGKGGIGKSTTSSNLSAAFSILGKRVLQIGCDPKHDSTFTLTGSLVPTVIDVLKDVDFHPEELRPEDFVFEGFNGVMCVEAGGPPAGTGCGGYVVGQTVKLLKQHHLLDDTDVVIFDVLGDVVCGGFAAPLQHADQAVVVTANDFDSIYAMNRIIAAVQAKSKNYKVRLAGCVANRSRATDEVDRFCKETNFRRLAHMPDLDAIRRSRLKKKTLFEMDEDQDVLAARAEYIRLAESLWRGLDPIDPHSLPDRDIFELLGFD
- stoichiometry N: 2
